According to patent US20220380409A1:

Molecular target: PfLDH protein (UniProt Q27743)
Assay: -

**Q.** How did the Kd turn out when primary ligand hevwh was run?
**A.** The Kd was 5 µM.
